T1: ECSIT_(CTER) (residues 221-431) (human, UniProt Q9BQ95 221-431)
T1 chain: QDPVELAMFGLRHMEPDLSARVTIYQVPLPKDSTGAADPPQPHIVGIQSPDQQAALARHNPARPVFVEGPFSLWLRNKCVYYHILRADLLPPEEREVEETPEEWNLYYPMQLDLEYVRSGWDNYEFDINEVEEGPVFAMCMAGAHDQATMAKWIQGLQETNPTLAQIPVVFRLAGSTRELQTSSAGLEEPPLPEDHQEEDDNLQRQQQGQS

T2: ACAD9_(S191A) (human, UniProt Q9H845 38-621, S191A)
T2 construct: human ACAD9, residues 38-621, S191A; One FAD per protomer in the cryo-EM structure; source: E. coli C43 (DE3), purified (HisTrap, dialysed in SEC buffer)
T2 sequence (looked up): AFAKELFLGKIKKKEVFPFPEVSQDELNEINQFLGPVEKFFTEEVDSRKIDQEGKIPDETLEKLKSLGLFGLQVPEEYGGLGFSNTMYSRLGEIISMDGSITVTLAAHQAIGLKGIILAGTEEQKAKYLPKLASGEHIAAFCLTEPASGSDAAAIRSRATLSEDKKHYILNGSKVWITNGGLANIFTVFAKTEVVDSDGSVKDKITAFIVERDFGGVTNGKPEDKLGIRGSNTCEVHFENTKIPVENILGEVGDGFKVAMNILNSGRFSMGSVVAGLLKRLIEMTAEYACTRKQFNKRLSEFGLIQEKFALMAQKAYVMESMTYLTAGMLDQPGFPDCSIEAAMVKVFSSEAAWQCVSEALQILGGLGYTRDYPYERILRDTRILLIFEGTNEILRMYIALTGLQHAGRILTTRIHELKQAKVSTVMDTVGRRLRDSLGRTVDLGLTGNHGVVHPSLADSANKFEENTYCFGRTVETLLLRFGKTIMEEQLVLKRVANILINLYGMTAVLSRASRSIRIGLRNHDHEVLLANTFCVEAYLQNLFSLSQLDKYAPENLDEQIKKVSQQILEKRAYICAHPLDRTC

T3: ACAD9_(A184S) (human, UniProt Q9H845 38-621, A184S)
T3 construct: human ACAD9, residues 38-621, A184S (mimics the VLCAD gatekeeper loop); source: E. coli C43 (DE3), purified (HisTrap, dialysed in SEC buffer)
T3 sequence (looked up): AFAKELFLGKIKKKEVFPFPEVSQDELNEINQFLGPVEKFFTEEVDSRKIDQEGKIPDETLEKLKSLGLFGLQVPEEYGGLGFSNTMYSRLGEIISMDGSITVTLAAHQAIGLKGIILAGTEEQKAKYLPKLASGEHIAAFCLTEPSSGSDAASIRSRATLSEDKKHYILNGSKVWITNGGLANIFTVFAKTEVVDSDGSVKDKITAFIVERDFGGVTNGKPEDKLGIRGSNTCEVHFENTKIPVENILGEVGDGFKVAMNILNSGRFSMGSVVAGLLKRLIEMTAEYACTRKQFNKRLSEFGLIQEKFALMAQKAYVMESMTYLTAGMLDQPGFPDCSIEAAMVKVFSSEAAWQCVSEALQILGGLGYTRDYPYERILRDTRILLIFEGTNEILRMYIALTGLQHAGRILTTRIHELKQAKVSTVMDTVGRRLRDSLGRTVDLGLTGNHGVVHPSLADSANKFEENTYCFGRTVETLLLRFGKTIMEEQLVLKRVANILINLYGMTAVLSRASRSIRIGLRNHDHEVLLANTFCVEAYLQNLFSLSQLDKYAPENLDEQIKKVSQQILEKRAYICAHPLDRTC

T4: ACAD9_(SR194TS) (human, UniProt Q9H845 38-621, SR194TS)
T4 construct: human ACAD9, residues 38-621, double mutant SR194TS (mimics the VLCAD gatekeeper loop); source: E. coli C43 (DE3), purified (HisTrap, dialysed in SEC buffer)
T4 sequence (looked up): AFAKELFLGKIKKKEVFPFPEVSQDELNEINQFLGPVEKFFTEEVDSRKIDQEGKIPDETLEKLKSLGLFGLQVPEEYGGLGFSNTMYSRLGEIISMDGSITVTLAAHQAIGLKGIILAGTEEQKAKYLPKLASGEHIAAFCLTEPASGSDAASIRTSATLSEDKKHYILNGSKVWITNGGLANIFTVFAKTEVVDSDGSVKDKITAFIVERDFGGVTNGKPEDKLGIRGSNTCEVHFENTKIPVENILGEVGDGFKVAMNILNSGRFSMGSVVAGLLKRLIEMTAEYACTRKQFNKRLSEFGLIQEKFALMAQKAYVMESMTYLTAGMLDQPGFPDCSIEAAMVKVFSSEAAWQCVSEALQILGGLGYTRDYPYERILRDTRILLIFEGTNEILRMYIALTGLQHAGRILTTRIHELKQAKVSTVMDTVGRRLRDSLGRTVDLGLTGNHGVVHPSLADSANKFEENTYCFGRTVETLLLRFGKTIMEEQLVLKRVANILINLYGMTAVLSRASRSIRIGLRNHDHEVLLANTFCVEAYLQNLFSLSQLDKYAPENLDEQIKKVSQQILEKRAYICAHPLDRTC

T5: ACAD9_(A184S/SR194TS) (human, UniProt Q9H845 38-621, A184S | SR194TS)
T5 construct: human ACAD9, residues 38-621, A184S and SR194TS combined (mimics the VLCAD gatekeeper loop); source: E. coli C43 (DE3), purified (HisTrap, dialysed in SEC buffer)
T5 sequence (looked up): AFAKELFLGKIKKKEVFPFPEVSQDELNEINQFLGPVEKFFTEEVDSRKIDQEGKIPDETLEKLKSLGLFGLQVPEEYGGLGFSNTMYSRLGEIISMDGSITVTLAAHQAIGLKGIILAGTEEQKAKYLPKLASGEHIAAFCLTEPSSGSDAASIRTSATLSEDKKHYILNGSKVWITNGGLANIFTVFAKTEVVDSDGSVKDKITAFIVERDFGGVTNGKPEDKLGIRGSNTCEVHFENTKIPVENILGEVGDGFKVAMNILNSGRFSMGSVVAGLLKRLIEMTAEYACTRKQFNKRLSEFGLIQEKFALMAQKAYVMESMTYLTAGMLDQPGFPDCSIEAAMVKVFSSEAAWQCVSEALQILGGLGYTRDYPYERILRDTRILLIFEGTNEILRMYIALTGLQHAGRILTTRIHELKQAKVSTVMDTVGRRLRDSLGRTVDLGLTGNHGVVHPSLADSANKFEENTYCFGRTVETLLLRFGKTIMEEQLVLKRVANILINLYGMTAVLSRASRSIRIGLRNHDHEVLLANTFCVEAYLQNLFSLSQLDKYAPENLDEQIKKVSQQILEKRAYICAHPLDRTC

B1: ACAD9WT (mature ACAD9, residues 38-621) (enzyme, human, UniProt Q9H845 38-621, looked up)
chain: AFAKELFLGKIKKKEVFPFPEVSQDELNEINQFLGPVEKFFTEEVDSRKIDQEGKIPDETLEKLKSLGLFGLQVPEEYGGLGFSNTMYSRLGEIISMDGSITVTLAAHQAIGLKGIILAGTEEQKAKYLPKLASGEHIAAFCLTEPASGSDAASIRSRATLSEDKKHYILNGSKVWITNGGLANIFTVFAKTEVVDSDGSVKDKITAFIVERDFGGVTNGKPEDKLGIRGSNTCEVHFENTKIPVENILGEVGDGFKVAMNILNSGRFSMGSVVAGLLKRLIEMTAEYACTRKQFNKRLSEFGLIQEKFALMAQKAYVMESMTYLTAGMLDQPGFPDCSIEAAMVKVFSSEAAWQCVSEALQILGGLGYTRDYPYERILRDTRILLIFEGTNEILRMYIALTGLQHAGRILTTRIHELKQAKVSTVMDTVGRRLRDSLGRTVDLGLTGNHGVVHPSLADSANKFEENTYCFGRTVETLLLRFGKTIMEEQLVLKRVANILINLYGMTAVLSRASRSIRIGLRNHDHEVLLANTFCVEAYLQNLFSLSQLDKYAPENLDEQIKKVSQQILEKRAYICAHPLDRTC
notes: human ACAD9, mature form, residues 38-621; E. coli codon-optimised synthetic gene; Cloned into pET-21d(+); Plasmid details are in Supplementary Data 1; source: E. coli C43 (DE3), purified (HisTrap, dialysed in SEC buffer)

How the values were obtained:
[1] = target: T1, ECSIT_(CTER) (residues 221-431); assay: ITC
[2] = target: the molecule itself; assay: cryo-EM structure; ACAD9WT-ECSIT_(CTER) reconstituted (molar ratio 1:1.25) and purified by gel filtration; 25 mM HEPES, 300 mM NaCl, 1 mM TCEP, pH 7.5; C2 symmetry imposed
[3] = target: T2, ACAD9_(S191A); assay: ITC; 25 °C; ACAD9 at 49 uM in the cell, titrated with ECSIT at 300 uM; 50 mM Tris-HCl pH 7.5, 250 mM NaCl; settings: both partners purified
[4] = target: T3, ACAD9_(A184S); assay: dynamic light scattering; 278 K, protein at 1-2 mg/ml; complexes reconstituted at molar ratio 1:1.25; settings: both partners purified
[5] = target: T4, ACAD9_(SR194TS); assay: as above; settings: both partners purified
[6] = target: T5, ACAD9_(A184S/SR194TS); assay: mass photometry; ACAD9 (or VLCAD) at 20-50 nM in 25 mM HEPES pH 7.5, 250 mM NaCl, or diluted in 4.8 uM ECSIT solution for complex formation; settings: both partners purified
[7] = target: B1; assay: cryo-EM structure; ACAD9WT-ECSIT_(CTER) reconstituted (molar ratio 1:1.25) and purified by gel filtration; 25 mM HEPES, 300 mM NaCl, 1 mM TCEP, pH 7.5; C2 symmetry imposed; settings: both partners purified

Kd [1] [µM]	Kd [3] [µM]	fold decrease in fold change against ACAD9WT-ECSIT_(CTER) [3] [fold]	binding result [4]	binding result [5]	binding result [6]	stoichiometry N [7]	Binder	stoichiometry N [2]
1.45	–	–	–	–	–	–	B1	2
–	3.93	~3	binds	binds	binds	1 ECSIT_(CTER) per ACAD9 protomer	ECSIT_(CTER) (residues 221-431) (domain or fragment, human, UniProt Q9BQ95 221-431, looked up, human ECSIT, residues 221-431; E. coli codon-optimised synthetic gene; Only residues 320-334 are modelled in the cryo-EM map; Plasmid details are in Supplementary Data 1; also called C-terminal ECSIT; source: E. coli BL21 Star (DE3), purified (HisTrap, SEC)) QDPVELAMFGLRHMEPDLSARVTIYQVPLPKDSTGAADPPQPHIVGIQSPDQQAALARHNPARPVFVEGPFSLWLRNKCVYYHILRADLLPPEEREVEETPEEWNLYYPMQLDLEYVRSGWDNYEFDINEVEEGPVFAMCMAGAHDQATMAKWIQGLQETNPTLAQIPVVFRLAGSTRELQTSSAGLEEPPLPEDHQEEDDNLQRQQQGQS	–

Reference: PMC10716376, “The assembly of the Mitochondrial Complex I Assembly complex uncovers a redox pathway coordination” (Nature Communications, 2023)
